Results from article PMC5080701, “TIS7 induces transcriptional cascade of methylosome components required for muscle differentiation”.

How the values were obtained:
[1] = molecular target: T1, GST-TIS7 (TPA Induced Sequence 7) (mouse, UniProt P19182 1-449); experiment: EMSA; blocked by 20-fold excess of unlabelled oligonucleotide; supershifted by TIS7 antibody; EMSA: 1 ug probe, 10 min, 5% native PAGE (50 mM Tris pH 7.5, 0.38 M glycine, 2 mM EDTA; run in TBE), binding buffer not stated; SPR: Biacore X100, SA chip, oligos annealed in 30 mM Na3PO4, 200 mM NaCl, 1 mM DTT pH 7.2, protein dialyzed in 50 mM Tris pH 7.4, 150 mM NaCl; running buffer and temperature not stated; conditions: protein: recombinant; tags: N-terminal GST; blunt
T1 sequence: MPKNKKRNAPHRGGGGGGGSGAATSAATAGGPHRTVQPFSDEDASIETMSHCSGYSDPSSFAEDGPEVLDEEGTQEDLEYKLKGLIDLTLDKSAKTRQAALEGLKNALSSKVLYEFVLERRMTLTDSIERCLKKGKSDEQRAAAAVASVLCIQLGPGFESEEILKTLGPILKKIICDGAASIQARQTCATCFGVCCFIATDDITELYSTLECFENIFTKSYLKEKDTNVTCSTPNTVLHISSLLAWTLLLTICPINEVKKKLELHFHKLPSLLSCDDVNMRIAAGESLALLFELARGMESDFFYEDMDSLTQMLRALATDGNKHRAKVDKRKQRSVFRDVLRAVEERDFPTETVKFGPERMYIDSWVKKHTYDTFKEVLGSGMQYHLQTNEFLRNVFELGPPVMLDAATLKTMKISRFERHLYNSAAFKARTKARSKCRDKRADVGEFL

[2] = molecular target: T1, GST-TIS7 (TPA Induced Sequence 7); experiment: SPR; Kd value printed only in Fig. 4d; 10-fold difference in Kd between native and scrambled sequence; EMSA: 1 ug probe, 10 min, 5% native PAGE (50 mM Tris pH 7.5, 0.38 M glycine, 2 mM EDTA; run in TBE), binding buffer not stated; SPR: Biacore X100, SA chip, oligos annealed in 30 mM Na3PO4, 200 mM NaCl, 1 mM DTT pH 7.2, protein dialyzed in 50 mM Tris pH 7.4, 150 mM NaCl; running buffer and temperature not stated; conditions: protein: recombinant; tags: N-terminal GST; label: 5'-biotin on sense strand; blunt

B1: ICln promoter minimal essential region (-154/-113), EMSA probe (dsDNA)
DNA 1: TAGAATGTCTCATCTCTATGGTCGACGGCGTTCAGATTCCG
DNA 2: CGGAATCTGAACGCCGTCGACCATAGAGATGAGACATTCTA
binding result [1]: binds

B2: ICln promoter minimal essential region (-154/-113), SPR (dsDNA)
DNA 1: TAGAATGTCTCATCTCTATGGTCGACGGCGTTCAGATTCCG
DNA 2: CGGAATCTGAACGCCGTCGACCATAGAGATGAGACATTCTA
binding result [2]: binds
